Measured values: patent publication US20230340151A1 (Pfizer, published 2023)

Key:
Assay in all cases: flow cytometry on cells displaying the construct
[1] = target: T1, CID1877 (human-chicken GUCY2c chimera) (human/chicken)
T1 chain: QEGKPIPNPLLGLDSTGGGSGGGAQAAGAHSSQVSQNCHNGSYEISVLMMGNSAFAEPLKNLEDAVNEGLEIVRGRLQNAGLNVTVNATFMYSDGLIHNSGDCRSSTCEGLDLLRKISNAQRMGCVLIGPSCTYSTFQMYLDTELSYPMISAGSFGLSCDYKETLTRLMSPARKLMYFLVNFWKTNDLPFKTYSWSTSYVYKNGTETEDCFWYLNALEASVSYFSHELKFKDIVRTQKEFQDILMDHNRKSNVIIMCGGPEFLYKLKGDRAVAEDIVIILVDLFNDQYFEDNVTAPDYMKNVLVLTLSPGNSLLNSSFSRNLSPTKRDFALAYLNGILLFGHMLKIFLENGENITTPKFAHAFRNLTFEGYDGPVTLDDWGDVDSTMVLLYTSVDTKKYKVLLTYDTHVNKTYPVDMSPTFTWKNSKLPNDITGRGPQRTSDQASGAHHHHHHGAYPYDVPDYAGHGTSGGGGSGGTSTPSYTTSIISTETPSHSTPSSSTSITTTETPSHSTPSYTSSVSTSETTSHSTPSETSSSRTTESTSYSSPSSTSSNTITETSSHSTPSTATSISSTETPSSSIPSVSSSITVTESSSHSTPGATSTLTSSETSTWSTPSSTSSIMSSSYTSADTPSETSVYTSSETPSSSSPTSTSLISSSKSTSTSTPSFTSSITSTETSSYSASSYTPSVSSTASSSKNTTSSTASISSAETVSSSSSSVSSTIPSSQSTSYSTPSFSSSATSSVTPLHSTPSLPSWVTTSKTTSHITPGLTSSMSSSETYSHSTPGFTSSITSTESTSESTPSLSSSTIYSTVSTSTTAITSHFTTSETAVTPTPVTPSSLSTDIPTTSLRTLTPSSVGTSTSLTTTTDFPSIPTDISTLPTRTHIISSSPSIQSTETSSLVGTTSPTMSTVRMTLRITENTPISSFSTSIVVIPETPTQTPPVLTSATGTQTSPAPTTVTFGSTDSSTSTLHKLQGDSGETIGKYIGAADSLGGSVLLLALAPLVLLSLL

[2] = target: T2, CID1881 (human-chicken GUCY2c chimera) (human/chicken)
T2 chain: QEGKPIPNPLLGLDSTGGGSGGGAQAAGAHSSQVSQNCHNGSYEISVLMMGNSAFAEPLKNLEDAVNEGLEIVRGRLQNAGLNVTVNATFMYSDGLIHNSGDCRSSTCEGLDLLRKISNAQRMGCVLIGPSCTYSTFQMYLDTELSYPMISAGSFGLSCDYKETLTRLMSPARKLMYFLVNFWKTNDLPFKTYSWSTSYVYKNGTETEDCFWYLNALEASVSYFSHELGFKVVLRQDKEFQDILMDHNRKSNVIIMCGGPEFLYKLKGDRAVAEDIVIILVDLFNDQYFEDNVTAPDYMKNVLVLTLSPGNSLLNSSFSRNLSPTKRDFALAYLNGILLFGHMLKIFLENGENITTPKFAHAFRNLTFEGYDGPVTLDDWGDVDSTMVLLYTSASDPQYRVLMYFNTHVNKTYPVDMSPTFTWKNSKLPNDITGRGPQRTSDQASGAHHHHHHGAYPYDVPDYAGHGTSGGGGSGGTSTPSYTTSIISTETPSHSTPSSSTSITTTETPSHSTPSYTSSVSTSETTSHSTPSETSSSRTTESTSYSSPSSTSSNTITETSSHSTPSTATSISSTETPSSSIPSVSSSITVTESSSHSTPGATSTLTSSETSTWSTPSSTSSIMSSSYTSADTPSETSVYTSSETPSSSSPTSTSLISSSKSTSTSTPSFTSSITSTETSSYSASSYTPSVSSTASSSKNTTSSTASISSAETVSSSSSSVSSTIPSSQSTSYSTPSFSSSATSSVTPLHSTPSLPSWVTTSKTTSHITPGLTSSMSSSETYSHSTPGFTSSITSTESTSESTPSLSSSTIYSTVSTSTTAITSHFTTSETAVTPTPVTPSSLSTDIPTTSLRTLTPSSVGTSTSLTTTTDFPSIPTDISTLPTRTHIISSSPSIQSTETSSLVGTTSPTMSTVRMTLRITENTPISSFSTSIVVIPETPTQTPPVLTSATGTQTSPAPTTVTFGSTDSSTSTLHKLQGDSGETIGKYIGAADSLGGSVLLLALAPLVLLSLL

[3] = target: T3, CID1940 (reverse chimera, chicken GUCY2c with human residues) (chicken/human)
T3 chain: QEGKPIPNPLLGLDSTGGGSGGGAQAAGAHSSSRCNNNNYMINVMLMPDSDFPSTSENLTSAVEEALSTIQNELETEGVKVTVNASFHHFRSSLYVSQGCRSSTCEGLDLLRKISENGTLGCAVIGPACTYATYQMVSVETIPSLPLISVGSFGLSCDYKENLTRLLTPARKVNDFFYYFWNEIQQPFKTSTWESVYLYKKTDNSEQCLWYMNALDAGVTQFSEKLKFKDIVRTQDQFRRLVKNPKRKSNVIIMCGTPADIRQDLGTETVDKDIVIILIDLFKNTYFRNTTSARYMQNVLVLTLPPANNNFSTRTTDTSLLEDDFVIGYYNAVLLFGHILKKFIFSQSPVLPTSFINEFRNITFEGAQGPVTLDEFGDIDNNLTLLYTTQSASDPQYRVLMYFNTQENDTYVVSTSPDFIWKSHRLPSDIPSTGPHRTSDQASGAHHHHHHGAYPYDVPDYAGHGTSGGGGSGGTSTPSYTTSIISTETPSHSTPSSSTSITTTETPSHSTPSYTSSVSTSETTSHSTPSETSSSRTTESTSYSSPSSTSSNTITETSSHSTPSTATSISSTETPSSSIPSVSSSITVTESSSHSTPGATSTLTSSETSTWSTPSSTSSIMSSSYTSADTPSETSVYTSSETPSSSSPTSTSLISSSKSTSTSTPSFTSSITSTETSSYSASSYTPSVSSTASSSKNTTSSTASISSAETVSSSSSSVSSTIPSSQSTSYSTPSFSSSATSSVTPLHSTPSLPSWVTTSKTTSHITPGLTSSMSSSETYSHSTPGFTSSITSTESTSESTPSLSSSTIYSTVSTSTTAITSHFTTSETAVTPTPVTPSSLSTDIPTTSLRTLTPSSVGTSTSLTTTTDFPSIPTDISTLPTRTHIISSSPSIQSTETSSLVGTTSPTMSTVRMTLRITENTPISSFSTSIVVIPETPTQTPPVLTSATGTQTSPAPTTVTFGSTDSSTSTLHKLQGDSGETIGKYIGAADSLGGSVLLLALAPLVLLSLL

[4] = target: CID1950 (human GUCY2c point mutant) (human)

Measured: binding result

B1: GUCY2C-1608 (bispecific antibody)
chain 1: DIQLTQSPSSLSASVGDRVTITCRASESVDYYGSSLLQWYQQKPGKAPKLLIYAASKLASGVPSRFSGSGSGTDFTLTISSLQPEDFATYYCQQTRKAYTFGQGTKLEIKGGGSGGGGEVQLVESGGGLVQPGGSLRLSCAASGFTFSDYYMTWVRQAPGKGLEWVAFIRNQARGYTSDHNPSVKGRFTISRDNAKNSLYLQMNSLRAEDTAVYYCARDRPSYYVLDYWGQGTTVTVSSGCPPCPAPEAAGAPSVFLFPPKPKDTLMISRTPEVTCVVVDVSHEDPEVKFNWYVDGVEVHNAKTKPREEQYNSTYRVVSVLTVLHQDWLNGKEYKCKVSNKALPAPIEKTISKAKGQPREPQVCTLPPSREEMTKNQVSLWCLVKGFYPSDIAVEWESNGQPENNYKTTPPVLDSDGSFFLYSKLTVDKSRWQQGNVFSCSVMHEALHNHYTQKSLSLSPG
chain 2: DIQMTQSPSSLSASVGDRVTITCTSSQSLFNVRSQKNYLAWYQQKPGKAPKLLIYWASTRESGVPSRFSGSGSGTDFTLTISSLQPEDFATYYCKQSYDLFTFGGGTKVEIKGGGGSGGGGEVQLVESGGGLVQPGGSLRLSCAASGFTFSSYWMHWVRQAPGKGLEWIGEIKPSNELTNVHEKFKDRFTISVDKAKNSAYLQMNSLRAEDTAVYYCTRTITTTEGYWFFDVWGQGTLVTVSSGCPPCPAPEAAGAPSVFLFPPKPKDTLMISRTPEVTCVVVDVSHEDPEVKFNWYVDGVEVHNAKTKPREEQYNSTYRVVSVLTVLHQDWLNGKEYKCKVSNKALPAPIEKTISKAKGQPREPQVYTLPPCREEMTKNQVSLSCAVKGFYPSDIAVEWESNGQPENNYKTTPPVLDSDGSFFLVSKLTVDKSRWQQGNVFSCSVMHEALHNHYTQKSLSLSPG
notes: also called GUCY2c CD3 bispecific
binds: [1] | [2] | [3] | [4]
